Experimental data published in paper PMC3268725.
Where “and” joins values, the source holds several entries; their conditions need not be identical. Identical values can stand only once.

B1: His-tagged YidC, purified (natural protein)
chain: MDSQRNLLVIALLFVSFMIWQAWEQDKNPQPQAQQTTQTTTTAAGSAADQGVPASGQGKLISVKTDVLDLTINTRGGDVEQALLPAYPKELNSTQPFQLLETSPQFIYQAQSGLTGRDGPDNPANGPRPLYNVEKDAYVLAEGQNELQVPMTYTDAAGNTFTKTFVLKRGDYAVNVNYNVQNAGEKPLEISSFGQLKQSITLPPHLDTGSSNFALHTFRGAAYSTPDEKYEKYKFDTIADNENLNISSKGGWVAMLQQYFATAWIPHNDGTNNFYTANLGNGIAAIGYKSQPVLVQPGQTGAMNSTLWVGPEIQDKMAAVAPHLDLTVDYGWLWFISQPLFKLLKWIHSFVGNWGFSIIIITFIVRGIMYPLTKAQYTSMAKMRMLQPKIQAMRERLGDDKQRISQEMMALYKAEKVNPLGGCFPLLIQMPIFLALYYMLMGSVELRQAPFALWIHDLSAQDPYYILPILMGVTMFFIQKMSPTTVTDPMQQKIMTFMPVIFTVFFLWFPSGLVLYYIVSNLVTIIQQQLIYRGLEKRGLHSREKKKS

Biological target: E. coli 70S ribosomes (nontranslating, salt-washed) (E. coli)
Assay: co-sedimentation

| Molecule | Kd [nM] | fold lower affinity than SecY for ribosomes |
| --- | --- | --- |
| SecYHisEG complex, purified, in detergent (from UniProt P0AGA2;P0AG96;P0AG99) | 150 |  |
| B1 |  | 5 times lower and 10 times lower |
